Experimental data: the nanobody polyreactivity screen of Harvey et al. (2022)

Assay: yeast display, Sf9 membrane polyspecificity reagent, FACS + sequencing; frameworks hold sequencing errors
Procedure, shortened: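 Using colony PCR, genes from sorted yeast display clones were amplified, then sequenced on MiSeq at 2 × 250 and filtered by CDR length. The clones had been stained with 10% biotinylated, detergent-solubilized Sf9 membrane reagent for 1 hour at 4 °C and sorted by FACS into low and high (top ~1%) gates on anti-HA and streptavidin fluorescence. Polyreactivity labels come from the gate of origin.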

| Sequence | polyreactivity (PSR sort gate) |
| --- | --- |
| QVQLVESGGGLVQAGGSLRLSCASSGNIFRYYVMGWYRKAPGKEREFVAAITSSGGSTYYADSVKGRFTISRDNAKNTVYFQINSLKPDDSEVYYCAKDYWDPGWAEYDYWGQCTQVTVSS | low polyreactivity |
| QVQLVESGGGVVQAGGSLRLTCAASVSIFASNAMGWYRQAPGKEREFVAAITWRTDRTYYADSVKGRFTISRDNAKNTVYLQMNSLKPEDTAVYYCAADLLPLYDYWGQGTQVTVSS | high polyreactivity |
| QVQLVESGGGLVQAGGSLRLSCAASGRIFGYYAMGWYRQAPGKERELVARITKTVGGTYYADSVKGRFTISRDNAKNTVYLQMNSLKPEDTAVYYCAARVWTGNGRSKGAYDYWGQGTQVTVSS | high polyreactivity |
| QVQLVESGGGLVQAGGSLRLSCADSGSTFGYYAMGSYRQAPGKERELVAAITSTGRTKYADSVKGRVTISRDNAKNTVNLQMNSLKPEDTAVYYCAADIWGQGTQVTVSS | high polyreactivity |
| QVQLQESGGGLVQAGGSLLSCAASGTISYYREMGWYRPAPGKERELVAGIGVGTITYYADSVKGRFTISRDNAKNTVYLQMNSRKPEDTAVYYCAAHIDGNDSHAYWGQGTQVTVSS | low polyreactivity |
| QVQLVESGGGLVQAGGSLRLSCAASGSTFRYYAMGWYRQAPGKERELVAAISGSGGRTYYADSVKGRFTISRDNAKNTVYLQMYSLKPEDTAVYYCAASRYQFYWGQGTQVTVSS | high polyreactivity |
| QVQLVESGGGLVQAGGSLSLSCAASGSTFFIYTMGWYRQAPGNEREFVAAISWTGGRTYYADSEKGRFTISRDNAKNTVFLQMNSLTPEDTAVYYCAARYKYSSYDYWGQGTQVTVSS | high polyreactivity |
| QDQLVESGGGLVQAGGSLRLSGAASGRTFLGYAMGCYRQAPGKERALVAAITWRGGITYYADSVKGRFTISRDNAKNTVYLQMNSLKPEDTAVYYCAARKVGNRYTYYWGQGTQVTVSS | high polyreactivity |
| QDQHVESGGGLVQAGGSLRLSCAATGNIFRYYTMGWYRQAPRKERELVAAISWNGGSTYYADSVKGRFTISRDNAKNTVYLQMNSLKPEDTAVYYCNAVQYYEFDYWGQGTQVTVSS | low polyreactivity |
| QVQLVESGGGLVQAGGSLRLSCAASGRIFGINVMGWYRQAPGKERELVAAISYRTGSTYYADSVKGRFTISRDNAKNTVYLQMNSLKPEDTAVYYCAAQRRIRTAWYDYWGQGTQVTVSS | high polyreactivity |
| QVQLVESGGGLVQAGGSLRLSCAASGNTIFAYVMGWYRQAAGKEREFVAAISRRDGRTYYADSVKGRFTISRDNAKNTVYLQMNSLKPEDTAVYYCNAQRHFWHLYAPSSFDYWGQGTQVTVSS | low polyreactivity |
| QVQLVESGGGLVQAGGSLLLSCAASGSIFGSNAMGWYTQATVKERELVAVITNGGRTYYADSVKGLFTISRDNAKNTVYLQMNSLKPEDTAVYYCAASRVYGWYGSYSTYGSVGQGTQVTVSS | high polyreactivity |
| QVQLVESGGGLVQAGGSLRLSCAASGITFYDNVMGWYIQAPGKERELVAAITSGGSTNYADSVKGRFTISRDNAKNTVYLQMNSLKPEDTAVYYCAAQPRVDYEFPYRYGYWGQGTQVTVSS | low polyreactivity |
| QVQLVESGGGLVQAGGSLRLSCAASGSTFSTYAMGWYRQAPGKERELVAAIRSGGSTYYADSVKGRFTISRDNAKNTVYLQMNSLKPEDTAVYYCAAKPRNYSYRYYYWGQGTLVTVSS | high polyreactivity |
| QVHLVESGGGLVQAGGSLRLSCAASGFIFHSYAMGWYRQAPGKERELVASISRGGGSTYYADSVKGRFTISRDNAKNTVYLQMNSLKTEDTAVYYCNAVWRSNSRFDYWGQGTQVTVSS | high polyreactivity |
| QVQLVESGGRLVQAGGSLRLSCAASGYTYDRYAMGWYRQAPGKERQLVAAISSSGTSTYYADSVKGRFTISRDNEKNTVYLQMNSLKPEDTAVYYCAATRLKLKFAYWGQGTQVTVSS | high polyreactivity |
| QDQHVESGGGLVQAGGRLRLICAASGGNFTKNAMGWYRQAPGKERELVAGISRTGGNTYYADSVKGRFTISRDNAKNTVYLQMNSLKPDDTAVYYCNALYGGPHRLRYDYWGQGTQVTVSS | low polyreactivity |
| QVQLVESGGGLVQAGGSLRLSCAASGRIFRYYTMGWYRQAPGKERELVATISWNGSNTYYADSVKGRFTISRDNAKNTVYLQMNSLKPEDTAVYYCAAGVLPGLYNGARLFDYWGHGTQVTVSS | low polyreactivity |
| QVQLVESGGGLVQAGGSLRLSCAASGSIFWVYAMGWYRQAPGKEREFVAAITYSGGSTYYADSVKGRFTISRDNAKNTVYLQMNSLKPEDTAVYYCAADYDYDYGSRYYYWGQGTQVTVSS | low polyreactivity |
| QVQLVESGGGLVQARGSLRLSCAASGRIFLINGMGWYRQAPGKERELVAVITQSGGTYYADSVKGRFTISRDNAKNTVYLQMNSLKPEDTAVYYFAASSYGASRGYWGQGTQVTVSS | high polyreactivity |
| QVQLVESGGGLVQAGGSLRLSCAASGIIFGHYDMGWYRQAPGKERELVAAITFTGDSTYYADSVKGRFTISRDKAKNTVYLQMTSLKPEDTAVYYCAAETPVPWGSWGYDYWGQGTQVTVSS | low polyreactivity |
| QVQLVESGGGIVQAGGSLRLSCAASGSIFHYYAMGWYRQAPGKESELVAAISWSGGRTNYADSVKGRFTISRDNAKNTVYLQMNSLKPEDTAVYYCAAAERSFSGGGKIGKYYYWGQGTQVTVSS | high polyreactivity |

| Sequence | polyreactivity (PSR sort gate) |
| --- | --- |
| QVQLVESGGGLVQAGGSLRLSCAASGRIFGYNTMGWYRQAPGKERELVARISYDVDSTYYADSVKGRFTISRDNAKNTVYLQMNSLKPEDTAVYYCNARRSNLGSYIEYFGFDYWGQGTQVTVSS | low polyreactivity |
| QVQLVEAGGGLVQAGGSLRLSCAASGSTFKRYAMGWYRQAPGKERELVASISSGGSTNYADSVKGRFTISRDNAKNTVYLQMNSLKPEDTAVDYCAVSYRSFRYYWERYYSWGQGTQVTVSS | high polyreactivity |
| QVQLVESGGGLVQAGGSLRLSCAASGFTFRRYAMGWYRQAPGKERELVAAISIRGGRTYYADSVKGRFTISRDNAKNTVYLQMNSLKPEDTAVYYCAAEVGFWGYGGYYYWGQGTQVTVSS | high polyreactivity |
| QVQLVESGGGLVQAGGSLRLSCAASGSTFRDNVMGWYRQAPGKEWEFVAAISSSVGSTYYADSVKGRFTISRDNAKNTVYLQMNSLKPEDTAVYYCAARLWPSYLSYGKTGDYWGQGTQVTVSS | high polyreactivity |
| QVHLVESGGGLVQAGGSLRLSCAPSGLTFPYNAMGWYRQAPGKESELVAAISRGGGTNYADSVKGRFTISRDNAKNTVYLQMNSLKPEDTAVYYCAAEYATWWGGYDYSGQGTQVTVSS | low polyreactivity |
| QVQLVESGGGLVQAGGSLRLSCSASGRIFVIYDMGWYRQAPGKEWEFVAAISWRTGSTYYADSVKGRFTISRDNAKNTVYLQMNSLKPEDTAVYYCAASIGLVHYDYWGQGTQVTVSS | low polyreactivity |
| QVQLVESGGVIVQAGGSLRLSCAATGSNFWSYAMGSSRPAPGKERELVASITRSGGSTYYADSVKGRFTISRDNAKNTVYSQMNSLKPEDTAVYYCNARRTTRWGSSKYEYDYWGQGTQVTVSS | high polyreactivity |
| PVQLVESGGGLVQAGGSLRLTCAASGRIFTGYAMGWYRQAPGKERELVAAISRGGSTNYADSVKGRFTISRDNEKNTVYLLMNSLKPEDTAFYYCAAGFDWDRGDYWGQGTQVTVSS | low polyreactivity |
| QVQLVESGGGLVQAGGSLRLSCAASGITFTSNTLGWYRQAPGKERELVAAISKSGGSTYYADSVKGRFTISRDNAKNTVYLQMNSLKPEDTAVYYCAKDSDYYRRDVTVDYWGQGTQVTVSS | low polyreactivity |
| QLQHVETGGGLVQAGGSLRLSCAASGSTFRSYVMGWYRQAPGKERELVAAISWITGSTYYADSVKGRFTISRDNAKNTVYLQMNSLKPEDTAVYDCAARYRTQSSLYYWGQGTQVTVSS | high polyreactivity |
| PVQLVESGGGLVQAGGSLRLSCAASGRILPSNAMGWYRQAPGKERELVAGITSGGSTDYADSVKGRFTISRDNAKNTVYLQMNSLNPVDTAVYYCAARYFHHYWGDLEVEFEYWGQGTQVTVSS | low polyreactivity |
| QVQLVESGGRLVQAGGSLRLSCAASGIIIRKYARGWYRPAPGKVRELVAAITTRGSRTYSADSVKGRFTISRDNAKNTVYLQMNSLKPEDTAVYYCAADRYTVRMDYWGQGTQVTVSS | high polyreactivity |
| QVQLVESGGGLDQAGGSLRLSCAASGFTFYWYAMGWYRQAPGKEREFVAAIDQSGGSTYYADSVKGRFTISRDNAKNNVYLQMNSLKPEDTAVYYCAKLYNIGYDYWGLGTQVTVSS | low polyreactivity |
| QVQLVESGGGLVQAGGSLRLSCAASGSTFEVYAMGWYRQAPGTERELVAVITNSGTSTNYADSVKGRFTISRDNAKNTVYLQMTSLKPEDTAVYYCAADVEWTSRGSYYRYYYWGQGTQVTVSS | low polyreactivity |
| QVQLVESGGGLVQAGGSLRLSCAASGRTFWFYTMGWYRQAPGKERELVAAISSGGSTNYADSVKGRFTISRDNAKNTVYLQMNSLKPEDTAVYYCNARFPVGPSEDAVWYYPKYDYWGQGTQVTVSS | low polyreactivity |
| QVQLEESGGGLVQAGGSLRLSCAASGFIFSSNAKGWYRQAPGKERELVAAISSSGGRTYYADSVKGRFTISRDNAKNPVYLQMNSLIPEYTAVYYCNADPRSLGSANDWGQGTQVTVSS | high polyreactivity |
| QFHLVESGGGIVQAGGSLRLSCAASGFTFAYYAMGRNRQAPGKERELVAAISSGGRTYYADSVKGRFTISRDNAQNTVYLQLNSLKPEDTAVYYCKTVPYYDALTYPFDSWGQGTQVTVSS | low polyreactivity |
| QVQLVESGGGLVQAGGSLRLSCAASGSTFGGYVMGWYRQAPGKERELVAAISGNGASTTYADSVKGRFTISRDNAKNTVYLQLNSLKPEDTAVYYCAALYRKAHSDYDYWGQVTQVTVSS | low polyreactivity |
| QVQLVESGGGLVQAGGSLRLSCAASGGIFYFNAMGWYRQAPWKERELVAAIDQRGDTTYYADTVKGRFTISRDNAKNTVYLQMNSLKPEDTAVYYCAAEIYFLGDDYWGQGTQFTVSS | high polyreactivity |
| QVHLEESGGGLVQEGGSHRLSCAASGGTFFSYDMGWYRQAPGKERELVAAISATGGSTYYADSVKGRFTISRDNAKNTVYLQMNSLKPEDTAVYYCNAYQESGTYLRMDYWGQGTQVTVSS | low polyreactivity |
| QVQLVESGGGLVQAGGSLRLSCAASGITFIINAMGWYRQAPGKERELVAAISWRGGNTHYADSVKGRFTISRDYAKNTVYLQLNSLKAEVTAVYYCAARVTSRRDPDQKHGYWGQGTQVTVSS | high polyreactivity |
